# Experimental data reported in patent publication US20240238441A1.
# B1: Wnt7a-HA (ligand)
# chain: LGASIICNKIPGLAPRQRAICQSRPDAIIVIGEGSQMGLDECQFQFRNGRWNCSALGERTVFGKELKVGSREAAFTYAIIAAGVAHAITAACTQGNLSDCGCDKEKQGQYHRDEGWKWGGCSADIRYGIGFAKVFVDAREIKQNARTLMNLHNNEAGRKILEENMKLECKCHGVSGSCTTKTCWTTLPQFRELGYVLKDKYNEAVHVEPVRASRNKRPTFLKIKKPLSYRKPMDTDLVYIEKSPNYCEEDPVTGSVGTQGRACNKTAPQASGCDLMCCGRGYNTHQYARVWQCNCKFHWCCYVKCNTCSERTEMYTCKYPYDVPDYA
# How the values were obtained:
# [1] = target: Coatomer complex of HEK293T cells (Homo sapiens (Human)) (UniProt P53621)
# [2] = target: Coatomer complex of HEK293T cells (Homo sapiens (Human)) (UniProt P53621); remark: listed apart in the source
binder,measurement,setting,value
B1,"Selection pattern Distribution (%), EV Fraction",[1],83.4%
same,"Wnt7a expression per ug of total protein, EV Fraction (tangential flow filtration) (per ug of total protein)",[2],0.13
